Test results as given in publication PMC13370696, “Anemia‐associated mutations disrupt the CDIN1‐Codanin1 complex in inherited congenital dyserythropoietic anemia I (CDA‐I) disease” (The Febs Journal, 2026).

B1: CDAN1-interacting nuclease 1 (CDIN1), full length, bacterial (natural protein, human, UniProt Q9Y2V0 1-281, looked up)
chain: MILTKAQYDEIAQCLVSVPPTRQSLRKLKQRFPSQSQATLLSIFSQEYQKHIKRTHAKHHTSEAIESYYQRYLNGVVKNGAAPVLLDLANEVDYAPSLMARLILERFLQEHEETPPSKSIINSMLRDPSQIPDGVLANQVYQCIVNDCCYGPLVDCIKHAIGHEHEVLLRDLLLEKNLSFLDEDQLRAKGYDKTPDFILQVPVAVEGHIIHWIESKASFGDECSHHAYLHDQFWSYWNRFGPGLVIYWYGFIQELDCNRERGILLKACFPTNIVTLCHSIA
notes: CDIN1 (C15orf41), human, full length, 281 amino acids; Eluted from the Im7 column by cleavage with His-tagged Ulp1; plasmid pl21 (TriAltus); The anticipated homodimer mass is printed as 67 kDa; Alone in solution it is mainly a homodimer; also called C15orf41
B2: Codanin1 C-terminus (amino acids 1005-1227), labeled with Alexa Fluor 488 (domain or fragment, human, UniProt Q8IWY9 1005-1227, looked up)
chain: AARGERRGCSRACEHHAPLPSHLISEIKDVLSLAVGPRDPDEGVSPEHLEQLLGQLGQTLRCRQFLCPPAEQHLAKCSVELASLLVADQIPILGPPAQYRLERGQARRLLHMLLSLWKEDFQGPVPLQLLLSPRNVGLLADTRPREWDLLLFLLRELVEKGLMGRMEIEACLGSLHQAQWPGDFAEELATLSNLFLAEPHLPEPQLRACELVQPNRGTVLAQS
modifications: Alexa Fluor 488 covalently attached (carboxylic acid, 2,3,5,6-tetrafluorophenyl ester); site not stated; degree of labeling over 90%
notes: Codanin-1 (CDAN1), human, amino acids 1005-1227, codon-optimized for bacterial expression; Same protein as m2, with the dye; also called fluorescently labeled Codanin1_(Cterm); Codanin1_(Cterm) Alexa Fluor 488
B3: Codanin1 C-terminus (amino acids 1005-1227), bacterial (domain or fragment, human, UniProt Q8IWY9 1005-1227, looked up)
chain: AARGERRGCSRACEHHAPLPSHLISEIKDVLSLAVGPRDPDEGVSPEHLEQLLGQLGQTLRCRQFLCPPAEQHLAKCSVELASLLVADQIPILGPPAQYRLERGQARRLLHMLLSLWKEDFQGPVPLQLLLSPRNVGLLADTRPREWDLLLFLLRELVEKGLMGRMEIEACLGSLHQAQWPGDFAEELATLSNLFLAEPHLPEPQLRACELVQPNRGTVLAQS
notes: Codanin-1 (CDAN1), human, amino acids 1005-1227, codon-optimized for bacterial expression; Eluted from the Im7 column by cleavage with His-tagged Ulp1; plasmid pl21 (TriAltus); Anticipated mass is printed as 25 kDa; also called C-terminal part of Codanin1

Tests used:
[1] = molecular target: B2; assay: native gel or EMSA; 1.25 uM Alexa Fluor 488-labeled Codanin1_(Cterm) with 0-20 uM CDIN1 (twofold dilutions); 20 mM Tris/HCl, 150 mM NaCl, 5% glycerol, pH 8.0; 15 min at room temperature; native 10% PAGE, 0.5x TBE, 4 °C; settings: both partners purified
[2] = molecular target: the molecule itself; assay: SEC-MALS; CDIN1 (2 mg/mL), Codanin1_(Cterm) (2 mg/mL) or the 1:1 complex; Zenix SEC 300 column; 20 mM Tris/HCl, 150 mM NaCl, pH 8.0
[3] = molecular target: B3; assay: AUC; sedimentation velocity, 20 °C, 50 000 rpm; 24 uM CDIN1, 24 uM Codanin1_(Cterm), or 1:1 complex at 12 uM each; 20 mM Tris/HCl, 150 mM NaCl, pH 8.0; settings: both partners purified
[4] = molecular target: B1; assay: MST; 75 nM Alexa Fluor 488-labeled Codanin1_(Cterm) with 0-5 uM CDIN1; 20 mM Tris/HCl, 150 mM NaCl, 5% glycerol, pH 8.0; 25 °C; Hill equation fit; apparent KD; settings: both partners purified
[5] = molecular target: B1; assay: ITC; Codanin1_(Cterm) (110 uM) titrated into CDIN1 (11 uM) in the cell; 15 °C; 20 mM Tris/HCl, 150 mM NaCl, 5% glycerol, pH 8.0; one-site binding model; settings: both partners purified

Binder: B1
stoichiometry N [1]: 1 CDIN1:Codanin1_(Cterm)
stoichiometry N [2]: 2
stoichiometry N [3]: 1 CDIN1:Codanin1_(Cterm)

Binder: B2
Kd [4]: 53 ± 8 nM

Binder: B3
Kd [5]: 20 ± 4 nM
